Legend:
Experiment in all cases: MITOMI
[1] = test system: MarA TRR (Escherichia coli); settings: MITOMI at 295 K; buffer, salt and pH not given in the material
[2] = test system: MarA RTR (Escherichia coli); settings: MITOMI at 295 K; buffer, salt and pH not given in the material; scale: ddG kJ/mol vs strongest site
[3] = test system: MarA RQR (Escherichia coli); settings: MITOMI at 295 K; buffer, salt and pH not given in the material
[4] = test system: MarA wild type (WQR) (Escherichia coli); settings: MITOMI at 295 K; buffer, salt and pH not given in the material

Substance mar site GAC has a binding signal (relative KA (strongest site = 1)) [1] of 1 and a binding signal [2] of over 3.3.

With mar site GAA the binding signal [2] was over 3.3.

With mar site GAG the binding signal [2] was over 3.3.

Work on mar site GCA yielded a binding signal (fold reduced affinity vs TCC) [3] of 1.6 and a binding signal (relative KA (strongest site = 1)) [4] of 1.

In the case of mar site GAT, the binding signal [2] is reported as over 3.3.

In the case of mar site TCC, the binding signal (relative KA (strongest site = 1)) [3] is reported as 1.

— publication PMC3315485
